The assay addresses T1, Flag-tagged Pds5b (wild type) phosphorylated by Nek2a and Cdk1/2-cyclin A2 (human, UniProt Q9NTI5 1-1447, phosphoserine at 1161 and 1166 (by Cdk1/2-cyclin A2) and at 1177, 1182 and 1209 (by Nek2a)).
T1 construct: Pds5b, human; insert by PCR on human cDNA; How fully each site was phosphorylated in these preparations was not measured; also called Pds5b-WT treated with these two kinases; Pds5b co-expressed with Nek2aΔMR and Δ86-cyclin A2
T1 sequence (looked up): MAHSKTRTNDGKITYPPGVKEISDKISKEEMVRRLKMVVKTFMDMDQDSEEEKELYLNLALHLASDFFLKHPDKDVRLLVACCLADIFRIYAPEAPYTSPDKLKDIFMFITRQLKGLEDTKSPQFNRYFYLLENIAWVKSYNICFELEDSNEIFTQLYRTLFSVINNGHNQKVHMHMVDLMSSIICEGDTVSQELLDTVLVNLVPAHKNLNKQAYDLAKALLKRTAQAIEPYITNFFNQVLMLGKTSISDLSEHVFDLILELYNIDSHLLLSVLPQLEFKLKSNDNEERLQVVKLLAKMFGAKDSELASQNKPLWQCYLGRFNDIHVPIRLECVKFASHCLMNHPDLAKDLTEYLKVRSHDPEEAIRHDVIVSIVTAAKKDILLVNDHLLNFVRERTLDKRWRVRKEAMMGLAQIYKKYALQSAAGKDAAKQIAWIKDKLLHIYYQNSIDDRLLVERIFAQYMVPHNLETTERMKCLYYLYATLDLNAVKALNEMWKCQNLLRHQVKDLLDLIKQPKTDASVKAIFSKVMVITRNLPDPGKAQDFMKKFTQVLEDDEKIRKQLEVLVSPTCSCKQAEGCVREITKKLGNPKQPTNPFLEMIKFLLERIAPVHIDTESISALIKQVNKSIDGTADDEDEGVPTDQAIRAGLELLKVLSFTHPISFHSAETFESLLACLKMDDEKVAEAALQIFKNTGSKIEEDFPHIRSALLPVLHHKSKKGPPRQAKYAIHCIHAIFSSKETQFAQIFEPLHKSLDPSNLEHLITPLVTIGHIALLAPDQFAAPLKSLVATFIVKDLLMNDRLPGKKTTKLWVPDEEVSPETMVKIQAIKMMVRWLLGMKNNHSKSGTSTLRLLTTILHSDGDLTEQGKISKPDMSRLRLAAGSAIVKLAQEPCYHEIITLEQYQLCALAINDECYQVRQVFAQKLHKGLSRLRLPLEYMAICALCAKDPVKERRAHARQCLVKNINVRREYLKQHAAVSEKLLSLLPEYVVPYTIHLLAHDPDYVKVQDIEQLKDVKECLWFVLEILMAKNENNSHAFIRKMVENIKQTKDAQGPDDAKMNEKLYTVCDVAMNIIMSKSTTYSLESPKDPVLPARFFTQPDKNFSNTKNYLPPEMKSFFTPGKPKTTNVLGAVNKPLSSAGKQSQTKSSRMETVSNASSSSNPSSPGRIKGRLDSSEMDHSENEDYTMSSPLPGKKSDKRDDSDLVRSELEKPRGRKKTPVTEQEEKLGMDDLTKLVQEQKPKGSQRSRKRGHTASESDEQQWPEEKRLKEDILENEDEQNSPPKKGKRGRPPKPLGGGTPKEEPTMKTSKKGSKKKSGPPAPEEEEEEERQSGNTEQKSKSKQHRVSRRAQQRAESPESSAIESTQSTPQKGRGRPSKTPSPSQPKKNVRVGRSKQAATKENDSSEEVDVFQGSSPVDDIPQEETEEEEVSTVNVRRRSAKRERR
Description: pull-down; Flag-Pds5b variants affinity-purified from Nek2a- and cyclin A2-free prometaphase cells, incubated on the beads with recombinant Nek2a and/or Cdk1/2-cyclin A2 and ATP, washed, then incubated with recombinant Wapl (2 µl) and sororin (0.3 µg) in 15 µl cleavage buffer without ATP, 20 min at 37 °C; immunoblotting. The conditions noted are these: both partners purified. For orientation: In western blotting, separated proteins are transferred to a membrane and probed.

B1: recombinant human Wapl (natural protein, UniProt Q7Z5K2 1-1190, looked up)
chain: MTSRFGKTYSRKGGNGSSKFDEVFSNKRTTLSTKWGETTFMAKLGQKRPNFKPDIQEIPKKPKVEEESTGDPFGFDSDDESLPVSSKNLAQVKCSSYSESSEAAQLEEVTSVLEANSKISHVVVEDTVVSDKCFPLEDTLLGKEKSTNRIVEDDASISSCNKLITSDKVENFHEEHEKNSHHIHKNADDSTKKPNAETTVASEIKETNDTWNSQFGKRPESPSEISPIKGSVRTGLFEWDNDFEDIRSEDCILSLDSDPLLEMKDDDFKNRLENLNEAIEEDIVQSVLRPTNCRTYCRANKTKSSQGASNFDKLMDGTSQALAKANSESSKDGLNQAKKGGVSCGTSFRGTVGRTRDYTVLHPSCLSVCNVTIQDTMERSMDEFTASTPADLGEAGRLRKKADIATSKTTTRFRPSNTKSKKDVKLEFFGFEDHETGGDEGGSGSSNYKIKYFGFDDLSESEDDEDDDCQVERKTSKKRTKTAPSPSLQPPPESNDNSQDSQSGTNNAENLDFTEDLPGVPESVKKPINKQGDKSKENTRKIFSGPKRSPTKAVYNARHWNHPDSEELPGPPVVKPQSVTVRLSSKEPNQKDDGVFKAPAPPSKVIKTVTIPTQPYQDIVTALKCRREDKELYTVVQHVKHFNDVVEFGENQEFTDDIEYLLSGLKSTQPLNTRCLSVISLATKCAMPSFRMHLRAHGMVAMVFKTLDDSQHHQNLSLCTAALMYILSRDRLNMDLDRASLDLMIRLLELEQDASSAKLLNEKDMNKIKEKIRRLCETVHNKHLDLENITTGHLAMETLLSLTSKRAGDWFKEELRLLGGLDHIVDKVKECVDHLSRDEDEEKLVASLWGAERCLRVLESVTVHNPENQSYLIAYKDSQLIVSSAKALQHCEELIQQYNRAEDSICLADSKPLPHQNVTNHVGKAVEDCMRAIIGVLLNLTNDNEWGSTKTGEQDGLIGTALNCVLQVPKYLPQEQRFDIRVLGLGLLINLVEYSARNRHCLVNMETSCSFDSSICSGEGDDSLRIGGQVHAVQALVQLFLERERAAQLAESKTDELIKDAPTTQHDKSGEWQETSGEIQWVSTEKTDGTEEKHKKEEEDEELDLNKALQHAGKHMEDCIVASYTALLLGCLCQESPINVTTVREYLPEGDFSIMTEMLKKFLSFMNLTCAVGTTGQKSISRVIEYLEHC
notes: Wapl, human; insert by PCR on human cDNA; Isolated from mitotically arrested cells; also called GFP-SUMOstar-Wapl; source: Hek293T, transiently transfected, taxol-arrested; not shown: GFP, N-terminal, cleaved; SUMOstar, N-terminal, cleaved
Consider B1, for which the binding result is on record as “binds”.
